According to patent US20240158497A1 (published 2024):

B1: bsAb19139D (bispecific antibody, V domains shown)
VH 1: QVQLVESGGGVVQPGRSLRLSCTASGFTFSSYAMYWVRQAPGKGLEWVSVIYYDGSYKYYADSVKGRFTISRDNSKNTLYLQMDSLRAEDTAVYYCASYNWNYWYFDFWGRGTLVTVSS
VH 2: QVQLVESGGGVVQPGGSLRLSCAASGFTFSTYDIHWVRQAPGKGLEWVAVISFDGSNRNYGDSVKGRFTISRDNSDNTLFLEMNNLRFEDTAVYYCAKEGYGVDFQHWGQGTLVTVSS
VL: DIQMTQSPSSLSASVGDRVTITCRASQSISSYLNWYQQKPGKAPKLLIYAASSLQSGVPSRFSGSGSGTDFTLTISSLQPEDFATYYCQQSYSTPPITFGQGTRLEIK
notes: two different heavy chains with a common light chain
B2: bsAb19142D (bispecific antibody, V domains shown)
VH 1: B1 VH 1
VH 2: EVQLVESGGGLVQPGGSLRLSCAASGLTFSSYEMNWVRQAPGKGLEWVSHISSAGSTKYYADSVKGRFTISRDNAKNSLFLQMNSLRAEDTAIYYCAGYNYAYYYFGVDVWGQGTTVTVSS
VL: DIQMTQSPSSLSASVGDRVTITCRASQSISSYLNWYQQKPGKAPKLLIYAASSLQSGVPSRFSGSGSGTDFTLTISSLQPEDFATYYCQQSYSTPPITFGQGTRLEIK
notes: common light chain
B3: bsAb19141D (bispecific antibody, V domains shown)
VH 1: B1 VH 1
VH 2: EVQLVESGGGVVRPGGSLRLSCTASGFTFDDYGMSWVRQAPGKGLEWVSGINWNGGRTEYADAVKGRFIISRDNAKNSLYLQMNSLRAEDTALYFCARTELRWDYWGQGTLVTVSS
VL: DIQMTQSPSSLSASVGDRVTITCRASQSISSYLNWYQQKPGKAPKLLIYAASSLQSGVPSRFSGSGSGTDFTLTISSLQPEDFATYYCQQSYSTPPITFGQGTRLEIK
notes: common light chain
B4: bsAb19145D (bispecific antibody, V domains shown)
VH 1: B1 VH 1
VH 2: EVQLVESGGGLVQPGRSLRLSCAASGFTLDDFAMHWVRQAPGKGLEWVSGISWNSGNIGYADSVKGRFTISRDNARNSLYLQMNSLRAEDTALYYCTSGYYLYYAMDVWGQGTTVTVSS
VL: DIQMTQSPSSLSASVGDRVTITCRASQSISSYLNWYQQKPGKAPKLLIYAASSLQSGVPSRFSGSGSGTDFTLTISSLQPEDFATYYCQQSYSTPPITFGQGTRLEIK
notes: common light chain
B5: bsAb19147D (bispecific antibody, V domains shown)
VH 1: B1 VH 1
VH 2: EVQLVESGGGLVQPGGSLRLSCTASGFTFSNYAIFWVRQAPGKGLEYVSGISNNGVTKYYADSVRDRFTISRDNSRNTVSIQMDSLRTEDMAVYYCARENWGSDDGFDIWGQGTMVTVSS
VL: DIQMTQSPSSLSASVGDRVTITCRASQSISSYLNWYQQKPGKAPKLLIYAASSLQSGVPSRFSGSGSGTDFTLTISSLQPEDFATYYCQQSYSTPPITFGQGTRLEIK
notes: common light chain
B6: bsAb19148D (bispecific antibody, V domains shown)
VH 1: B1 VH 1
VH 2: QVQLVQSGTEVKKPGSSVKVSCKASGGTFSTYPINWVRQAPGQGLEWMGGIIPIFGTASYAQKFQGRVAITTDESTSTAYMELNSLRSEDTAVYYCARERPNWGSNDYWGQGTLVTVSS
VL: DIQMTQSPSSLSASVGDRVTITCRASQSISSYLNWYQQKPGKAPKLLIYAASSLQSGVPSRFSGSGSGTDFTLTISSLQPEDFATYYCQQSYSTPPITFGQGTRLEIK
notes: common light chain
B7: bsAb19146D (bispecific antibody, V domains shown)
VH 1: B1 VH 1
VH 2: QVQLVQSGPEVKKPGSSVKVSCKASGGTIDRNEITWVRQAPGQGLEWMGVIIPILGEAHYERKFQGRLTITMDESTSTAYMELSNLRSEDTAVYYCARERAARGYLDYWGQGTLVTVSS
VL: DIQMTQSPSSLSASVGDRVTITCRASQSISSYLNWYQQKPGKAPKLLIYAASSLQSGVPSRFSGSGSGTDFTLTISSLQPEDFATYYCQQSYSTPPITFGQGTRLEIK
notes: common light chain
B8: bsAb19143D (bispecific antibody, V domains shown)
VH 1: B1 VH 1
VH 2: QLQLQESGPGLVKPSETLSLICTVSGGSISSNNYYWGWIRQPPGKGLEWIGNLYGSGSTYYNPSLKSRVTISVDTSKNQFSLKLSFVTAADTAVYHCARWDTNGGAFDIWGQGTMVTVSS
VL: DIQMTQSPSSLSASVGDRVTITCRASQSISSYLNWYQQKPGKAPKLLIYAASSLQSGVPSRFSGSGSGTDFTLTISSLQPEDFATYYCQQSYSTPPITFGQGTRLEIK
notes: common light chain
B9: bsAb19144D (bispecific antibody, V domains shown)
VH 1: B1 VH 1
VH 2: QVQLVQSGAEVKKPGASVKVSCKASGYTFTSLGISWVRQAPGQGLEWMGWISAYSGNRDYAQKFQGRVTMTTDTSTSTAYMELRSLRSDDTAVYYCARSLRFDYWGQGTLVTVSS
VL: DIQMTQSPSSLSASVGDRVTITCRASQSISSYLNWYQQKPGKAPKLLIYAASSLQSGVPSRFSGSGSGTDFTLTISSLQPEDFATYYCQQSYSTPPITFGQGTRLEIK
notes: common light chain
B10: bsAb19140D (bispecific antibody, V domains shown)
VH 1: B1 VH 1
VH 2: QVQLQESGPGLVKPSETLSLTCTVSGGSISNYYWTWIRQPPGKGLEWIGHISNSGTTNYNPSLKSRVTISVDTSKNQFSLKLTSVTAADTAVYYCARLPLGIAAVDTDYYYYFGMDVWGQGTTVTVSS
VL: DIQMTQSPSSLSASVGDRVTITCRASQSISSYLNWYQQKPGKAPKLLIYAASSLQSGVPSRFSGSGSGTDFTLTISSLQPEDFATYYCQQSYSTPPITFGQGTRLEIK
notes: common light chain

Target: T1, human LEPR extracellular domain expressed with a C-terminal myc-myc-hexahistidine tag (human, UniProt P48357 22-839)
T1 construct: Monomeric reagent; the whole entry is the construct with its tag; also called hLEPR-MMH; hLEPR.mmh
T1 sequence (P48357 other isoform, or with tags, fused parts or gaps): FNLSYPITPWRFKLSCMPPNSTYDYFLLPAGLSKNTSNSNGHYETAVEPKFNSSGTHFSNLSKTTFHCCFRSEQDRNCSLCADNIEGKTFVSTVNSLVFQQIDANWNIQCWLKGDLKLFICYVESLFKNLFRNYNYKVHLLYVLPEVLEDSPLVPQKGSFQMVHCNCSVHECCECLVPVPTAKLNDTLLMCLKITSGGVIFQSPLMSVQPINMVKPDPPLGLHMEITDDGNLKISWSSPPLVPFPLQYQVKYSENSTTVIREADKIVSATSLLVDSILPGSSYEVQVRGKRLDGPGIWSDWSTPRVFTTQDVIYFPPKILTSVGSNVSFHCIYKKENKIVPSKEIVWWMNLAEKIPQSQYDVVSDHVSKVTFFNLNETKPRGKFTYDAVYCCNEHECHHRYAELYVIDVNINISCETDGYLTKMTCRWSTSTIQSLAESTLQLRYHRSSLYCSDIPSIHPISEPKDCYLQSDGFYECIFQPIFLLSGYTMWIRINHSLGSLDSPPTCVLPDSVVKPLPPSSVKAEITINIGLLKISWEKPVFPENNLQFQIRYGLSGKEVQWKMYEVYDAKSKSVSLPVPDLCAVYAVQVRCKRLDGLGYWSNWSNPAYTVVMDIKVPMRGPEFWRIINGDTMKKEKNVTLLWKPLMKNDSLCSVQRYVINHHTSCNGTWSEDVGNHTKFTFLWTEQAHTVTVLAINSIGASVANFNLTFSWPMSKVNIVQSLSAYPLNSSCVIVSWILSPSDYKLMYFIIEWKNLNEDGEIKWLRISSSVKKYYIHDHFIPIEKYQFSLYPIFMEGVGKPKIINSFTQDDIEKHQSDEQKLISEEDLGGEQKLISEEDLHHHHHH
Assay: SPR Biacore 4000, bsAb captured by anti-human Fc, 25 C
Procedure: (§1) Equilibrium dissociation constants (KD values) for LEPR and GP130 binding to purified anti-LEPR/GP130 bispecific antibodies were determined using a real-time surface plasmon resonance biosensor using a Biacore 4000 instrument. All binding studies were performed in 10 mM HEPES, 150 mM NaCl, 3 mM EDTA, and 0.05% v/v Surfactant Tween-20, pH 7.4 (HBS-ET) running buffer at 25° C. and 37° C. The Biacore sensor surface was first derivatized by amine coupling with a monoclonal mouse anti-human Fc antibody (GE, #BR-1008-39) to capture anti-LEPR/GP130 bispecific antibodies. […] Different concentrations of LEPR or GP130 reagents were first prepared in HBS-ET running buffer (100 nM-3.7 nM; 3-fold serial dilution) and were injected over anti-human Fc captured anti-LEPR/GP130 bispecific antibody surface for 4 minutes at a flow rate of 30 μL/minute, while the dissociation of bispecific antibody bound LEPR or GP130 reagent was monitored for 10 minutes in HBS-ET running buffer. Kinetic association (kₐ) and dissociation (kd) rate constants were determined by fitting the real-time binding sensorgrams to a 1:1 binding model with mass transport limitation using Scrubber 2.0c curve-fitting software. Binding dissociation equilibrium constants (KD) and dissociative half-lives (t ½) were calculated from the kinetic rate constants as: […]

100 nM hLEPR-MMH Bound (RU) | Kd [nM] | koff [s⁻¹] | kon [M⁻¹ s⁻¹] | t½ [min] | Binder
41 | 7.09 | 0.000171 | 24100 | 68 | B1
46 | 7.76 | 0.000175 | 22500 | 66 | B2
45 | 5.91 | 0.000151 | 25400 | 77 | B3
41 | 6.62 | 0.000165 | 24900 | 70 | B4
42 | 7.13 | 0.000162 | 22700 | 71 | B5
44 | 7.31 | 0.000172 | 23600 | 67 | B6
45 | 8.16 | 0.000179 | 22000 | 64 | B7
45 | 7.31 | 0.000182 | 24900 | 64 | B8
48 | 6.48 | 0.000159 | 24600 | 73 | B9
47 | 7.36 | 0.00018 | 24500 | 64 | B10

Target: T2, Macaca Fascicularis LEPR extracellular domain expressed with a C-terminal myc-myc-hexahistidine tag (Macaca fascicularis, UniProt Q9MYL0 22-837 (rhesus entry))
T2 construct: Monomeric reagent; the whole entry is the construct with its tag; also called mfLEPR-MMH
T2 sequence (Q9MYL0 other isoform, or with tags, fused parts or gaps): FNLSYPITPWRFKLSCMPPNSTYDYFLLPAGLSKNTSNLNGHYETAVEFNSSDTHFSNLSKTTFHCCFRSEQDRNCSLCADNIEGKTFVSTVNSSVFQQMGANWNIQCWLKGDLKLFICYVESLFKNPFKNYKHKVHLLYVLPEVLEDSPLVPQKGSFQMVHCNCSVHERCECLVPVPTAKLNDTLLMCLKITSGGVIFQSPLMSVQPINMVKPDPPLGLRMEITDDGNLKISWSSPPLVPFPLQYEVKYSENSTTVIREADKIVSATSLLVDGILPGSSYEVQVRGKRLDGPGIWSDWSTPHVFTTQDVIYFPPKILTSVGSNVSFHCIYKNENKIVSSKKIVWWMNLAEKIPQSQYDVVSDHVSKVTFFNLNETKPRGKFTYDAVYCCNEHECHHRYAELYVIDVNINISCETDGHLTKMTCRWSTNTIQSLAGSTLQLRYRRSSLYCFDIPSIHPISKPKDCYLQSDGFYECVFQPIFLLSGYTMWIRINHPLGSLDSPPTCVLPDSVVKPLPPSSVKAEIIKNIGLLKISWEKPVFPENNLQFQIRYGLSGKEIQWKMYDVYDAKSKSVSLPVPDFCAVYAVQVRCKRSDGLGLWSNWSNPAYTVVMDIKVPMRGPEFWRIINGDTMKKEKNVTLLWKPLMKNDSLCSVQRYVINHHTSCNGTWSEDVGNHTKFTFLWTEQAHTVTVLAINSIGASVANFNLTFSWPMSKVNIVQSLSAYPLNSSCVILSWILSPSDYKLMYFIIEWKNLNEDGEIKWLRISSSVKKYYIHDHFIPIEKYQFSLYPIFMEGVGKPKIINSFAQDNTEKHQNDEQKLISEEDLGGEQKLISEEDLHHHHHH
Assay: as above
Procedure: as §1

100 nM mfLEPR-MMH Bound (RU) | Kd [nM] | koff [s⁻¹] | kon [M⁻¹ s⁻¹] | t½ [min] | Binder
103 | 2.93 | 0.000128 | 43600 | 90 | B1
112 | 2.74 | 0.000126 | 45900 | 92 | B2
110 | 2.86 | 0.000124 | 43300 | 93 | B3
102 | 2.75 | 0.000123 | 44900 | 94 | B4
107 | 2.8 | 0.000119 | 42500 | 97 | B5
107 | 2.88 | 0.000119 | 41300 | 97 | B6
107 | 2.63 | 0.000113 | 42900 | 102 | B7
111 | 3.04 | 0.000136 | 44800 | 85 | B8
114 | 3.02 | 0.000124 | 41100 | 93 | B9
112 | 2.69 | 0.000121 | 45000 | 95 | B10

Target: T1, human LEPR extracellular domain …
Assay: SPR Biacore 4000, bsAb captured by anti-human Fc, 37 C
Procedure: as §1

100 nM hLEPR-MMH Bound (RU) | Kd [nM] | koff [s⁻¹] | kon [M⁻¹ s⁻¹] | t½ [min] | Binder
67 | 21.2 | 0.000762 | 35800 | 15 | B1
74 | 18.6 | 0.000633 | 34000 | 18 | B2
74 | 16.6 | 0.000589 | 35400 | 20 | B3
66 | 20.8 | 0.000805 | 38600 | 14 | B4
65 | 20.5 | 0.000791 | 38500 | 15 | B5
69 | 20.5 | 0.000798 | 39000 | 14 | B6
69 | 21.3 | 0.000825 | 38700 | 14 | B7
72 | 21.5 | 0.000763 | 35500 | 15 | B8
78 | 16.2 | 0.000597 | 36800 | 19 | B9
75 | 21.4 | 0.000818 | 38200 | 14 | B10

Target: T2, Macaca Fascicularis LEPR extracellular …
Assay: as above
Procedure: as §1

100 nM mfLEPR-MMH Bound (RU) | Kd [nM] | koff [s⁻¹] | kon [M⁻¹ s⁻¹] | t½ [min] | Binder
163 | 5.42 | 0.000559 | 103000 | 21 | B1
172 | 5.57 | 0.000529 | 94900 | 22 | B2
173 | 5.05 | 0.000522 | 103000 | 22 | B3
162 | 5.48 | 0.000566 | 103000 | 20 | B4
163 | 5.64 | 0.000565 | 100000 | 20 | B5
163 | 6.17 | 0.000571 | 92500 | 20 | B6
164 | 5.68 | 0.000568 | 100000 | 20 | B7
171 | 5.74 | 0.000551 | 95900 | 21 | B8
178 | 5.22 | 0.000517 | 99100 | 22 | B9
175 | 5.6 | 0.000572 | 102000 | 20 | B10
